{"source": "paper PMC8413462", "about": "“Eukaryotic Box C/D methylation machinery has two non-symmetric protein assembly sites” (Scientific Reports, 2021)", "binders": {"B1": {"name": "fibrillarin from Pyrococcus furiosus (enzyme, P. furiosus, UniProt Q8U4M2 1-227, looked up)", "chain": "MVEVKKHKFPGVYVVIDDDGSEKIATKNLVPGQRVYGERVIKWEGEEYRIWNPHRSKLGAAIVNGLKNFPIKPGKSVLYLGIASGTTASHVSDIVGWEGKIYGIEFSPRVLRELVPIVEERRNIIPILGDATKPEEYRALVTKVDVIFEDVAQPTQAKILIDNAKAYLKRGGYGMIAVKSRSIDVTKEPEQVFKEVERELSEYFEVIERLNLEPYEKDHALFVVRKP", "notes": "fibrillarin, Pyrococcus furiosus, full-length gene amplified from genomic DNA, UniProtKB Q8U4M2; Cloned into pET-M11 with a TEV-cleavable N-terminal His6-Tag; source: E. coli BL21(DE3), purified (heat step at 80 °C, HisTrap, TEV cleavage, reverse HisTrap); not shown: His6, N-terminal, cleaved"}, "B2": {"name": "Nop5 from Pyrococcus furiosus (natural protein, P. furiosus, UniProt Q8U4M1 1-402, looked up)", "chain": "MKAFISENVRGIYAFDENGNLIEKRYFTDKPEKVLDQLLKGEITKDLEELLNSLKEKGYDEFVFEHPELSRRAKELGFSATTEFPNIAGERLRSNPEEFLGENWFEEYYKVGVALTRMRIQEQSGARDKMVIQAIEALDDVDKVINLLVARLREWYSLHFPELDELLPKHPQYVAFVKTVGHRDNINEEVLRELGLSEEKIKKILEAKEKTMGAWMDQTDIEVVRQLAEEIDRLYQLRKKLEDYIDRAMDDVAPNLKALVGAKLAARLISLAGGLRELAMMPSSTIQVLGAEKALFRHLRTGAKPPKHGVIYQYPAINRSPWWQRGKIARALAGKLAIAARVDYFSGEYIAEELKKELEARIREIKEKYPKPPKRKREERKGKKPWKKDKKKKKKKEKPRRR", "notes": "Nop5, Pyrococcus furiosus, full-length gene amplified from genomic DNA, UniProtKB Q8U4M1; Cloned into pET-M11 with a TEV-cleavable N-terminal His6-Tag; also called Nop5_(2) (homodimer); source: E. coli BL21(DE3), purified (heat step at 80 °C, HisTrap, TEV cleavage, reverse HisTrap); not shown: His6, N-terminal, cleaved"}, "B3": {"name": "Snu13 from Saccharomyces cerevisiae (natural protein, S. cerevisiae, UniProt P39990 1-126, looked up)", "chain": "MSAPNPKAFPLADAALTQQILDVVQQAANLRQLKKGANEATKTLNRGISEFIIMAADCEPIEILLHLPLLCEDKNVPYVFVPSRVALGRACGVSRPVIAASITTNDASAIKTQIYAVKDKIETLLI", "notes": "Snu13, S. cerevisiae, full-length SNU13 gene, codon-optimised synthetic gene, UniProtKB P39990; Cloned into pET-M11 with a TEV-cleavable N-terminal His6-Tag; also called Sc Snu13; source: E. coli BL21 (DE3), purified (HisTrap, QTrap flow-through, TEV cleavage, reverse HisTrap); not shown: His6, N-terminal, cleaved"}}, "key": {"[1]": {"molecular_target": "B2", "test": "SEC; Nop5 and fibrillarin mixed 1:1.1, 15 min at 80 °C, cooled to room temperature; Superdex S200 Increase 10/300 GL; 20 mM sodium phosphate, 500 mM NaCl, pH 6.6", "conditions": "both partners purified"}, "[2]": {"molecular_target": "the molecule itself", "test": "SEC; Nop5 and fibrillarin mixed 1:1.1, 15 min at 80 °C, cooled to room temperature; Superdex S200 Increase 10/300 GL; 20 mM sodium phosphate, 500 mM NaCl, pH 6.6"}, "[3]": {"molecular_target": "T1, Nop5_(2)–Fib2 complex from Pyrococcus furiosus (P. furiosus, UniProt Q8U4M1 1-402; Q8U4M2 1-227)", "T1 construct": "Nop5, Pyrococcus furiosus, full-length, UniProtKB Q8U4M1; fibrillarin, Pyrococcus furiosus, full-length, UniProtKB Q8U4M2; Formed beforehand and then mixed with Snu13 and guide RNA (1:2:1); also called Nop5_(2)–Fib2 tetramer; source: E. coli BL21(DE3), each protein purified; mixed 1:1.1, 15 min at 80 °C, complex purified by size-exclusion chromatography; not shown: His6, N-terminal, cleaved; …", "T1 sequence (looked up) 1": "B2 chain", "T1 sequence (looked up) 2": "B1 chain", "test": "SEC-MALS; RNP assembled with archaeal guide RNA sR26, Snu13 and Nop5_(2)–Fib2; Superdex S200 Increase 10/300 GL, miniDawn TREOS, Optilab T-rex; the guide RNA is part of the particle; monomeric and dimeric RNP peaks partially overlapped", "conditions": "both partners purified"}, "[4]": {"molecular_target": "T1, Nop5_(2)–Fib2 complex from Pyrococcus …", "test": "SEC-MALS; RNP assembled with yeast guide RNA snR51, Snu13 and Nop5_(2)–Fib2; Superdex S200 Increase 10/300 GL, miniDawn TREOS, Optilab T-rex; the guide RNA is part of the particle", "conditions": "both partners purified"}}, "data": [{"binder": "B1", "values": [{"measurement": "binding result", "setting": "[1]", "result": "binds"}]}, {"binder": "B2", "values": [{"measurement": "binding result", "setting": "[2]", "result": "binds"}]}, {"binder": "B3", "values": [{"measurement": "stoichiometry N", "setting": "[3]", "result": "2 copies per Nop5_(2)–Fib2 tetramer"}, {"measurement": "stoichiometry N", "setting": "[4]", "result": "1 copies per Nop5_(2)–Fib2 tetramer"}]}]}
